The target of experiment [1] is native murine IL-1 receptor of EL-4 6.1 C10 cells (murine).
Experiment [2] deals with T1, recombinant human IL-1α (polypeptide composed of the C-terminal 157 residues of IL-1α, Mr 17,500 form) (human, UniProt P01583, 125I label (chloramine-T method, ca 1 atom of iodine per IL-1α molecule) where used as tracer; fluorescein isothiocyanate conjugate in flow cytometry; unlabeled as competitor; coupled to Sepharose 4B …).
T1 sequence: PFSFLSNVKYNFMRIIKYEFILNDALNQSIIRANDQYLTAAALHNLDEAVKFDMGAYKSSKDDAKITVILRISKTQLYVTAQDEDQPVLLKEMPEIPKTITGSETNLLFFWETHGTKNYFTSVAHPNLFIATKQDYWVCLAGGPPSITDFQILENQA
As to the kind of experiment: direct binding of 125I-IL-1α to COS cells transfected with clone 78, Scatchard analysis.

The target of experiment [3] is T1, recombinant human IL-1α (polypeptide …). As to the kind of experiment: direct binding of 125I-IL-1α to EL-4 6.1 C10 cells, Scatchard analysis.
Experiment [4] shares this target. As to the kind of experiment: receptor in Triton X-100 solution (diluted extract) inhibiting 125I-IL-1α binding to extract on nitrocellulose; competitive inhibition model.

This passage reports IL-2 production from EL-4 6.1 C10 cells and Ka results from patent publication US5319071, “Soluble interleukin-1 receptors” (Immunex Corporation, dated 1994).

In experiment [1], “recombinant human IL-1α (polypeptide composed of the C-terminal 157 residues of IL-1α, Mr 17,500 form) (from UniProt P01583) (ligand)” had an IL-2 production from EL-4 6.1 C10 cells of 100%.

B1: recombinant murine IL-1 receptor (clone 78 in pDC201) expressed on COS cells (receptor)
chain: LEIDVCTEYPNQIVLFLSVNEIDIRKCPLTPNKMHGDTIIWYKNDSKTPISADRDSRIHQQNEHLWFVPAKVEDSGYYYCIVRNSTYCLKTKVTVTVLENDPGLCYSTQATFPQRLHIAGDGSLVCPYVSYFKDENNELPEVQWYKNCKPLLLDNVSFFGVKDKLLVRNVAEEHRGDYICRMSYTFRGKQYPVTRVIQFITIDENKRDRPVILSPRNETIEADPGSMIQLICNVTGQFSDLVYWKWNGSEIEWNDPFLAEDYQFVEHPSTKRKYTLITTLNISEVKSQFYRYPFICVVKNTNIFESAHVQLIYPVPDFKNYLIGGFIILTATIVCCVCIYKVFKVDIVLWYRDSCSGFLPSKASDGKTYDAYILYPKTLGEGSFSDLDTFVFKLLPEVLEGQFGYKLFIYGRDDYVGEDTIEVTNENVKKSRRLIIILVRDMGGFSWLGQSSEEQIAIYNALIQEGIKIVLLELEKIQDYEKMPDSIQFIKQKHGVICWSGDFQERPQSAKTRFWKNLRYQMPAQRRSPLSKHRLLTLDPVRDTKEKLPAATHLPLG
As to B1, the Ka in experiment [2] is 3e+09 M⁻¹.

B2: native murine IL-1 receptor of EL-4 6.1 C10 cells (receptor)
chain: B1 chain
modifications: glycoprotein (N-linked carbohydrate), Mr 82,000
B2: the values for the Ka in experiment [3] and in experiment [4] were 4.3e+09 M⁻¹ and 4.5e+09 M⁻¹, respectively.
